Measured values published in patent US10059748B2, “Pharmaceutical compositions for prevention or treatment of neurodegenerative diseases” (INSERM (INSTITUT NATIONAL DE LA SANTÉ ET DE LA RECHERCHE …, priority 2014, dated 2018).

How the values were obtained:
primary cortical neurons [1] = assay: Kinetics of neuronal death (pyknotic nuclei, TOPRO-3) after rotenone in microfluidic cultures; assay type: cell-based, rat; conditions: somatic application of rotenone
Experimental: 12 day-old neuronal cultures were subjected to oxidative stress by adding the respiratory chain complex I inhibitors rotenone (1 μM, diluted in DMEM containing 1 g/L glucose (Invitrogen), supplemented with 2 mM glutamine+1% penicillin/streptomycin+2% B-27+1% N2 supplements (Invitrogen)) or MPP+(1-methyl-4-phenylpyridinium, 10 μM in complete neuronal culture medium). The microtubule inhibitor colchicine (10 μM, complete neuronal culture medium) was used as a non-mitochondrial stress control. Toxins were added in the somatic or axonal chambers for respectively, somatic or axonal stress.
Neurons in the microfluidic cultures were fixed for 40 min at room temperature with PBS containing 4% paraformaldehyde (PFA), permeabilized using PBS+0.1% Triton-X100 during 20 min, rinsed with PBS, and blocked for 2 h with PBS+2.5% normal goat serum+3% BSA (blocking buffer). […] Fluorescence-based analyses and measurements were performed on either Zeiss LSM-510 or Zeiss LSM-710 inverted confocal microscopes with a 40× objective (63× objective for the analysis of mitochondrial network morphology and quantification of pDrp1 (S616) immunoreactivity). Immuno fluorescence analyses of Drp1 were performed using anti-pDrp1 (S616) (Cell Signaling Technologies, diluted 1:1000). Quantification of fluorescence intensities was performed using the threshold-based fluorescence quantification module of ImageJ software. […]

[2] = system: mitochondrial network of primary neurons; assay: Analysis of mitochondrial network morphology (Tom20 staining); assay type: cell-based, rat
Experimental: (§1) Primary cortical neurons were prepared from Sprague-Dawley rat embryos at gestational day 17. After dissection, cortex tissue was dissociated by a 15 min incubation at 37° C. in PBS containing 10 U/ml Papain (Worthington), followed by a gentle dissociation in PBS containing 1.5 mg/ml bovine serum albumin (BSA) and 1.5 mg/ml Trypsin inhibitor (from chicken egg, Sigma-Aldrich). After centrifugation through a 4% BSA cushion, neurons were plated on culture dishes coated with 0.5 mg/ml Poly-DL-Ornithine (PO, overnight, Sigma-Aldrich) and 5 mg/ml Laminin (2 h, Roche). Neuronal cultures were maintained in complete neuronal culture medium composed of serum-free Neurobasal (Gibco) supplemented with 2 mM L-Glutamine, 100 μg/ml penicillin/streptomycin (Gibco) and 2% B-27 supplement (Gibco).
Neurons were grown for 9 days at low density on 12 mm diameter glass coverslips placed in 24-well plates (5×10^4 cells per well). Transduction with lentiviral vectors was performed on day 3, whereas peptide was added to the medium on day 9. Neurons were left untreated or subjected to rotenone treatment (5 to 100 nM for 2 h, diluted in PBS), rinsed, fixed and directly stained for neuronal marker (βIII-tubulin) and mitochondria (Tom20, Santa Cruz Biotech.). Confocal pictures were taken and blinded to the investigator before image analysis. The sizes of mitochondria in all neuronal extensions of randomly selected neurons were determined using ImageJ software and mitochondria were classified in size categories (ranging from <2 μm to >8 μm). Each category was expressed as percentages relative to the size of the total mitochondrial network for a given neuron.

[3] = system: oxygen consumption rates of primary neurons; assay: Mitochondrial respiration measurements (Seahorse XF24 OCR); assay type: cell-based, rat; conditions: LV-transduced neurons, no stress
Experimental: Real-time measurements of oxygen consumption rates (OCR) were performed using a Seahorse XF24 extracellular flux analyzer (Seahorse Bioscience). Neurons were seeded and grown for 9 days in Seahorse XF24-wells plates (3×10^4 cells/well). Transduction with lentiviral vectors was performed on the 3rd day after seeding. Before measurements, the culture medium was replaced by warm respiration medium: DMEM without phenol red supplemented with 10 mM glucose, 2 mM L-Glutamine and 2 mM Pyruvate (Gibco) (the pH of the final culture medium was adjusted to 7.4). Following three 2-minute baseline measurements of OCR (3 minute-rest between each measure), mitochondrial complex inhibitors were sequentially injected into each well. Three OCR readings were taken after addition of each inhibitor and before automated injection of the subsequent inhibitor. Mitochondrial complex inhibitors, in order of injection, were Oligomycin (2 μM) to inhibit complex V (i.e., ATP synthase), FCCP (20 μM) to uncouple the proton gradient, Rotenone (2.0 μM), to inhibit complex I and Antimycin (2.0 μM), to inhibit complex III. OCR values were automatically calculated, recorded, and plotted by the Seahorse XF24 software.

[4] = system: ROS production in primary neurons; assay: ROS production measurement (c-H2DCFDA); assay type: cell-based, rat; conditions: LV-transduced neurons, no stress
Experimental: The culture medium was removed from the axonal or somatic chambers and replaced by pre-warmed PBS containing carboxy-2′,7′-dichlorodihydrofluorescein diacetate (c-H2DCFDA, 5 μM in PBS; LifeTechnologies) for 45 min at 37° C., 5% CO2. After 2 washes in PBS, cultures were returned to warm culture medium for 30 min. Cells were fixed and the integrative fluorescence was measured on 3 randomly selected fields for each axonal chamber. Tert-butyl hydroperoxide (TBHP, LifeTechnologies) was used as a positive control of ROS detection. ROS amounts were detected by fluorescence (excitation/emission: 495/529 nm) and quantified by measuring integrative emission signal intensities for each culture (mean of 4 randomly taken pictures in the case of microfluidic cultures using Zeiss LSM 510 confocal; signal intensity of the whole culture for traditional cultures, using a VarioSkan Flash fluorescence reader (Thermo Electron)).

primary cortical neurons [5] = assay: Axonal fragmentation in microfluidic primary neuron cultures after toxin treatment; assay type: cell-based, rat; conditions: neurons transduced with lentiviral vectors; rotenone in axonal chamber 16 h
Experimental: as §1, with “(Gibco). […]” for “(Gibco).”
The analysis of axonal degeneration was performed both by phase contrast observation and after immunostaining of axonal βIII-tubulin (Sigma-Aldrich). […] For each microfluidic culture, the total βIII-tubulin staining area was measured on 4 randomly selected pictures taken in the axonal chamber (MetaMorph software analysis, fixed thresholds). Then, the number of tubulin spots of fragmented axons was manually counted (Imaris software, Spot counting for “clicking” records) and the ratio between the number of spots and the total staining area was defined as a fragmentation index. […]

[6] = system: mitochondrial membrane potential (ΔΨm) of primary neurons; assay: Mitochondrial membrane potential analysis (JC-1); assay type: cell-based, rat; conditions: LV-transduced neurons, no stress
Experimental: Axons were stained with JC-1 dye (2 μM in PBS; LifeTechnologies) as described by the manufacturer. Briefly, JC-1 was added to the culture medium for 45 min at 37° C., 5% CO2, washed twice with PBS and analyzed by confocal microscopy using 488 nm excitation together with 530 nm and 585 nm band pass emission filters, whilst maintaining the cells at 37° C. and 5% CO2. Total fluorescence intensity was measured for each emission band pass with fixed thresholds and ratios between “red” (585 nm: active mitochondria) and “green” (530 nm: total mitochondria network) were determined for each culture (means of 4 randomly chosen pictures for each microfluidic culture).

OPA1, Mfn1/2, Fis1, Drp1 = assay: Expression and recruitment of mitochondrial fission/fusion actors; assay type: cell-based; conditions: X-expressing cells
[7] = system: Drp1 (S616) phosphorylation; assay: Immunofluorescence quantification of phospho-Drp1 (S616); assay type: cell-based, rat
Experimental: Neurons in the microfluidic cultures were fixed for 40 min at room temperature with PBS containing 4% paraformaldehyde (PFA), permeabilized using PBS+0.1% Triton-X100 during 20 min, rinsed with PBS, and blocked for 2 h with PBS+2.5% normal goat serum+3% BSA (blocking buffer). Incubation for at least 2 h at room temperature with primary antibodies diluted in blocking buffer was followed, after extensive washes in PBS, by 1 h incubation at room temperature with fluorescently-conjugated secondary antibodies diluted in PBS. For TOPRO3 staining, somatic chambers were incubated with TOPRO3 (1:1000 in PBS; Invitrogen) for 10 min and then rinsed twice in PBS. All incubation and washes were reduced by 50% for neurons grown in standard coverslips. Fluorescence-based analyses and measurements were performed on either Zeiss LSM-510 or Zeiss LSM-710 inverted confocal microscopes with a 40× objective (63× objective for the analysis of mitochondrial network morphology and quantification of pDrp1 (S616) immunoreactivity). Immuno fluorescence analyses of Drp1 were performed using anti-pDrp1 (S616) (Cell Signaling Technologies, diluted 1:1000). Quantification of fluorescence intensities was performed using the threshold-based fluorescence quantification module of ImageJ software. All data were normalized on βIII-tubulin staining.

[8] = system: nigrostriatal dopaminergic (DA) neurons; assay: MPTP intoxication mouse model of PD, TH immunodetection in striatum and SNpc; assay type: in vivo; conditions: lentiviral vector, stereotaxic injection in SNpc two weeks before MPTP
Experimental: Peptides covering the N-terminal (PX1, aa 1-30), middle (PX2, aa 29-59) or C-terminal (PX3, aa 59-87) parts of BDV X protein (GenBank: ABW81015.1) coupled to the MPP sequence were synthesized to >95% (in vitro studies) or >99% (in vivo studies) purity (Génosphère). For in vitro experiments, neurons were grown for 12 days before replacing the medium by fresh complete neuronal culture medium containing 5 μM of the peptides. The cultures were maintained 90 min at 37° C., 5% CO2 before any treatment or analysis to ensure peptide penetration into neuronal mitochondria. For intra-cerebroventricular delivery, peptides were injected as described below. For intranasal peptide delivery, 10 μl drops of peptide solution (1 mM solution in saline: H2O+0.9% NaCl) were placed onto the mice nostrils daily from the day before to the 3rd day after MPTP intoxication. […]
For immunohistochemical staining, free-floating brain sections were first quenched for 5 min in 20% (v/v) methanol and 1% (v/v) hydrogen peroxide diluted in PBS, then blocked for 30 min in a 4% solution of BSA diluted in PBS-0.3% Triton-X100 and incubated overnight at 4° C. with a primary antibody directed against tyrosine hydroxylase (1:500 dilution, US biological). […] TH-positive neurons were quantified stereologically on regularly spaced sections covering the whole Substantia Nigra pars compacta (SNpc). […]

C=C(C)[C@H]1Cc2c(ccc3c2O[C@@H]2COc4cc(OC)c(OC)cc4[C@@H]2C3=O)O1 [rotenone]
time to cell death (primary cortical neurons [1]): < 4 h

B1: X protein: 87 amino acid X protein of Borna Disease Virus, expressed from a lentiviral vector (LV-X) (protein)
chain: MSSDLRLTLLELVRRLNGNATIESGRLPGGRRRSPDTTTGTVGVTKTTEDPKECIDPTGRPAPEGPQEEPLHDLRPRPANRKGAAIE
modifications: Borna disease virus
rotenone-induced mitochondrial fission ([2]; after rotenone): significantly reduced
weighted mean size of mitochondria ([2]; after rotenone-induced oxidative stress (10 nM rotenone 2 h)): 4.54 μm
decrease of short, fragmented mitochondria (<2 μm) ([2]; steady state): 60%
weighted mean size of mitochondria ([2]; steady state, without rotenone): 5.22 μm
impact on respiration at steady-state [3]: no impact
impact on ROS production at steady-state [4]: no impact
protection against rotenone-induced axonal fragmentation (primary cortical neurons [5]): same level of axonal protection as infection with BDV
impact on ΔΨm at steady-state [6]: no impact
expression levels of OPA1, Mfn1/2, Fis1, Drp1 vs control cells (OPA1, Mfn1/2, Fis1, Drp1): did not find any significant difference
recruitment of Drp1 to the mitochondria vs control cells (OPA1, Mfn1/2, Fis1, Drp1): no difference
enhanced Drp1 phosphorylation after treatment with rotenone ([7]; after rotenone): selectively reduced
phosphorylation of Drp1 on serine-616 ([7]; steady state): severely reduced
ipsilateral TH-positive neurons in the SNpc after MPTP [8]: almost complete protection
ipsilateral striatal fibers (TH) after MPTP [8]: preservation
